B1: Protein GLUTAMINE DUMPER 1 (Arabidopsis thaliana (Mouse-ear cress)), O81775 (parent)
chain: MRPLSVQSKFEDVATSTSVNHHGVTPQSPWHSPVPYLFGGLAAMLGLIAFALLILACSYWRLSSSGEEDGQNVDEEKESRSGDKAANGAYEEKFLVIMAGEDLPRYLATPAMKKCTCGGHEGKMVISQEESVAKEEEKMREGEEEKVKDTGETTTTSH
partner: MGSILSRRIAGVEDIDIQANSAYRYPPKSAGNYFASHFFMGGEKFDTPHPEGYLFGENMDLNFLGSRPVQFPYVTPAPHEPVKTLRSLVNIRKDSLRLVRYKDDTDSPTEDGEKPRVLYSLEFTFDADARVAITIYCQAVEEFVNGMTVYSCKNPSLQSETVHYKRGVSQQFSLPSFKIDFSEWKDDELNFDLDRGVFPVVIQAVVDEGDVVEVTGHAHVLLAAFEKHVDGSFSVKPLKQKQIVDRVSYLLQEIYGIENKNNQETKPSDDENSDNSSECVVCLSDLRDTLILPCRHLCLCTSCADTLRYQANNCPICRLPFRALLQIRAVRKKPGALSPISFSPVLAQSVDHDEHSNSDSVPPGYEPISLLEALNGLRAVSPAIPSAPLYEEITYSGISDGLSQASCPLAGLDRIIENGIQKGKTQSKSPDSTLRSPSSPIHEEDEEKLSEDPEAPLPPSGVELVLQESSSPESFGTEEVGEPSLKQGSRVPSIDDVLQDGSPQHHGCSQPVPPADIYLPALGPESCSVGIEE
B2: Protein GLUTAMINE DUMPER 1 (Arabidopsis thaliana (Mouse-ear cress)), O81775 (parent)
chain: B1 chain
partner: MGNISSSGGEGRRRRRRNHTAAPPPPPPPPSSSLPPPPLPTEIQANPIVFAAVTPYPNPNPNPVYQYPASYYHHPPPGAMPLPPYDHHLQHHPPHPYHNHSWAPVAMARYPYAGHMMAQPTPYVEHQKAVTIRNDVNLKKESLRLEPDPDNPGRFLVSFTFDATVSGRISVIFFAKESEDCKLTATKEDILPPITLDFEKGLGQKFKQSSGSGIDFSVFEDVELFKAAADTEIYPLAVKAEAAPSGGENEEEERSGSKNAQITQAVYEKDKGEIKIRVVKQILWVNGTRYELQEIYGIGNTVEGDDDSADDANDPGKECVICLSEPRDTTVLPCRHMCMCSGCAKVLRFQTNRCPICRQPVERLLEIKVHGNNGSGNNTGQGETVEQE

Variants of: B1
Conditions: with mgrn1_rat Mgrn1, Q5XIQ4

Variant | effect of a mutation on the interaction
G100R | disrupting interaction

Variants of: B2
Conditions: with lofg2_arath LOG2, Q9S752

Variant | effect of a mutation on the interaction
V96F;I97F;M98F;A99F;G100F | disrupting interaction

Variants of: B2
Conditions: with lofg2_arath LOG2, Q9S752
Remark: another data set of the same source

Variant | effect of a mutation on the interaction
G100R | disrupting interaction
